Test results published in patent US20070016969A1.

Biological target: Bovine thrombin (Sigma) (bovine) (UniProt P00735)
Assay: cell-based or functional assay

amount of culture medium at which there is no coagulation (plasma coagulation, A405) [µL] | amount of culture medium needed for the anti-coagulation reaction at the A405 reading of 0.05 [µL] | amount of homogeneous extract of mammary gland cells at which there is no coagulation (plasma coagulation, A405) [mg] | amount of homogeneous extract of mammary gland cells needed for the anti-coagulation reaction at the A405 reading of 0.05 [mg] | Substance | amount at which there is almost no coagulation (plasma coagulation, A405) [pmol] | amount needed for the anti-coagulation reaction at the A405 reading of 0.05 [pmol]
 |  |  |  | commercially available nature hirudin (Sigma) (from UniProt P01050 1-65) | 0.16 | 0.52
10 | 0.95 | 0.25 | 0.056 | hirudin encoded by the full-length DNA fragment Hi (SEQ ID NO: 17), expressed from pE-αLA-Hi in NMuMG mammary gland cells (from UniProt P01050 1-65) |  | 
